Test [1] concerns the target T1, activation domain-Tsg101 construct (full-length Tsg101 in GADpN2: SV40NLS-GAL4 (768-881)-Tsg101) (human, UniProt P04386 768-881; Q99816 1-390).
T1 sequence: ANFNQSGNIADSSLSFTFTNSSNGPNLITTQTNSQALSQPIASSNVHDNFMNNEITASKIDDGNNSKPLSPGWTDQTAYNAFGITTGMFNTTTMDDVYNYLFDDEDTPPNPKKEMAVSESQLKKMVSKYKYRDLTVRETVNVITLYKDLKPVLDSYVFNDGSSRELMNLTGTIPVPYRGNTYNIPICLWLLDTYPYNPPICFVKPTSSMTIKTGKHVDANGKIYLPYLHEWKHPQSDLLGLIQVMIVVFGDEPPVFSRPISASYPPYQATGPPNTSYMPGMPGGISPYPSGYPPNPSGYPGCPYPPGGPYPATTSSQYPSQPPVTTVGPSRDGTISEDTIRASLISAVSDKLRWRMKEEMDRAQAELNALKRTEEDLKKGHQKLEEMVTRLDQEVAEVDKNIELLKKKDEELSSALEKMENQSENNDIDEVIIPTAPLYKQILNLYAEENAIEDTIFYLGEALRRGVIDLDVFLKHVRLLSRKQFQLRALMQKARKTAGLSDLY
Nature of the test: cell-based or functional assay.

In test [2] the target is T1, activation domain-Tsg101 construct …. Nature of the test: yeast two-hybrid, filter lift β-Gal assay.

Substitutions are numbered along the chain they refer to. Numbers in names are those of the source.

B1: binding domain-wild type p6gag construct (HIV1 p6 peptide of the HIV1.NL43 strain GAG protein in pGBT.Q) (other)
chain: LQSRPEPTAPPEESFRFGEETTTPSQKQEPIDKELYPLASLRSLFGSDPSSQ
Regarding B1, the “β-galactosidase activity in the two-hybrid liquid culture assay” value in test [1] is more than 300 fold over background.

B2: binding domain-mutant p6gag construct p6(A9R) (other)
chain: B1 chain with A9R
notes: The mutation number counts on p6gag
Turning to B2, in test [2], the binding result is “no binding”.

B3: binding domain-mutant p6gag construct p6(P7L) (other)
chain: B1 chain with P7L
notes: as for B2
As for B3, the binding result in test [2] was “no binding”.

B4: binding domain-mutant p6gag construct p6(P10L) (other)
chain: B1 chain with P10L
notes: as for B2
Consider B4, for which the binding result in test [2] is reported as “no binding”.
